Reference: doi:10.1101/2023.06.19.545549

Target: N2β1α1C1, purified recombinant (the MxDnaK1 chimera with the MxDnaK2 NBD) (Myxococcus xanthus DK1622)
Test: SDS-PAGE of the purified protein

stoichiometry N: 2
Substance: N2β1α1C1, purified recombinant (the MxDnaK1 chimera with the MxDnaK2 NBD)
